Results taken from patent US20050182242A1, “Global analysis of protein activities using proteome chips” (priority 2001, published 2005).

How the values were obtained:
Settings in all cases: liposome binding signal on yeast proteome chip, Cy3-streptavidin detection
PI(4,5)P2 liposomes = experiment: Yeast proteome chip probed with PI(4,5)P2 liposomes
PI(3,4)P2 liposomes = experiment: Yeast proteome chip probed with PI(3,4)P2 liposomes
PI(4)P liposomes = experiment: Yeast proteome chip probed with PI(4)P liposomes
PI(3)P liposomes = experiment: Yeast proteome chip probed with PI(3)P liposomes
PI(3,4,5)P3 liposomes = experiment: Yeast proteome chip probed with PI(3,4,5)P3 liposomes
[1] = tested on: phosphatidylcholine (PC) liposomes; experiment: Yeast proteome chip probed with PC liposomes
In short: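 Yeast proteome chips incubated 1 h at RT with sonicated liposomes of PC containing 1% (w/w) biotin-DHPE, plus 5% (w/w) of the indicated phosphoinositide where applicable. After PBS washes, bound liposomes detected with Cy3- or Cy5-streptavidin (>30 min, RT, dark) and fluorescence scanned.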

B1: FBP26: yeast GST-HisX6 fusion protein on proteome chip (protein, UniProt P32604 1-452, looked up)
Fructose-2,6-bisphosphatase: MGYSTISNDNDIKVCVIMVGLPARGKSFISQKIIRYLSWLSIKAKCFNVGNYRRDVSGNVPMDAEFFNFENTDNFKLRELAAQNAIKDIVNFFTKEDGSVAVFDATNSTRKRRKWLKDICEKNNIQPMFLESWSNDHELIINNAKDIGSTSPDYENSEPHVAEADFLERIRQYERFYEPLDPQKDKDMTFIKLVNIIEEVVINKIRTYLESRIVFYVMNIRPKPKYIWLSRHGESIYNVEKKIGGDSSLSERGFQYAKKLEQLVKESAGEINLTVWTSTLKRTQQTANYLPYKKLQWKALDELDAGVCDGMTYEEIEKEYPEDFKARDNDKYEYRYRGGESYRDVVIRLEPVIMELERQENVLIITHQAVLRCIYAYFMNVPQEESPWMSIPLHTLIKLEPRAYGTKVTKIKANIPAVSTYKEKGTSQVGELSQSSTKLHQLLNDSPLEDKF
modifications: GST-His6 tag
notes: yeast GST-HisX6 fusion protein on proteome chip
PI(4,5)P2 liposomes
  PI(4, 5)P2: 47.90
PI(3,4)P2 liposomes
  PI(3, 4)P2: 48.51
PI(4)P liposomes
  PI(4)P: 62.06
PI(3)P liposomes
  PI(3)P: 5.75
PI(3,4,5)P3 liposomes
  PI(3, 4, 5)P3: 25.31
[1]
  PC: 107.41

B2: FUR1: yeast GST-HisX6 fusion protein on proteome chip (protein, UniProt P18562 1-216, looked up)
Uracil …: MSSEPFKNVYLLPQTNQLLGLYTIIRNKNTTRPDFIFYSDRIIRLLVEEGLNHLPVQKQIVETDTNENFEGVSFMGKICGVSIVRAGESMEQGLRDCCRSVRIGKILIQRDEETALPKLFYEKLPEDISERYVFLLDPMLATGGSAIMATEVLIKRGVKPERIYFLNLICSKEGIEKYHAAFPEVRIVTGALDRGLDENKYLVPGLGDFGDRYYCV
modifications: GST-His6 fusion tag
notes: as for B1
PI(4,5)P2 liposomes
  PI(4, 5)P2: 111.70
PI(3,4)P2 liposomes
  PI(3, 4)P2: 210.19
PI(4)P liposomes
  PI(4)P: 148.94
PI(3)P liposomes
  PI(3)P: 112.25
PI(3,4,5)P3 liposomes
  PI(3, 4, 5)P3: 72.22
[1]
  PC: 95.67

B3: MPS1: yeast GST-HisX6 fusion protein on proteome chip (protein, UniProt P54199 1-764, looked up)
Serine/threonine-protein …: MSTNSFHDYVDLKSRTNTRQFSDDEEFTTPPKLSNFGSALLSHTEKTSASEILSSHNNDKIANRLEEMDRSSSRSHPPPSMGNLTSGHTSTSSHSTLFGRYLRNNHQTSMTTMNTSDIEINVGNSLDKSFERIRNLRQNMKEDITAKYAERRSKRFLISNRTTKLGPAKRAMTLTNIFDEDVPNSPNQPINARETVELPLEDSHQTNFKETKRNTDYDSIDFGDLNPIQYIKKHNLPTSDLPLISQIYFDKQREENRQAALRKHSSRELLYKSRSSSSSLSSNNLLANKDNSITSNNGSQPRRKVSTGSSSSKSSIEIRRALKENIDTSNNSNFNSPIHKIYKGISRNKDSDSEKREVLRNISINANHADNLLQQENKRLKRSLDDAITNENINSKNLEVFYHRPAPKPPVTKKVEIVEPAKSASLSNNRNIITVNDSQYEKIELLGRGGSSRVYKVKGSGNRVYALKRVSFDAFDDSSIDGFKGEIELLEKLKDQKRVIQLLDYEMGDGLLYLIMECGDHDLSQILNQRSGMPLDFNFVRFYTKEMLLCIKVVHDAGIVHSDLKPANFVLVKGILKIIDFGIANAVPEHTVNIYRETQIGTPNYMAPEALVAMNYTQNSENQHEGNKWKVGRPSDMWSCGCIIYQMIYGKPPYGSFQGQNRLLAIMNPDVKIPFPEHTSNNEKIPKSAIELMKACLYRNPDKRWTVDKVLSSTFLQPFMISGSIMEDLIRNAVRYGSEKPHISQDDLNDVVDTVLRKFADYKI
modifications: GST-HisX6 tag
notes: as for B1
PI(4,5)P2 liposomes
  PI(4, 5)P2: 1084.79
PI(3,4)P2 liposomes
  PI(3, 4)P2: 4216.40
PI(4)P liposomes
  PI(4)P: 6148.60
PI(3)P liposomes
  PI(3)P: 310.00
PI(3,4,5)P3 liposomes
  PI(3, 4, 5)P3: 1864.12
[1]
  PC: 4374.59

B4: TAT2: yeast GST-HisX6 fusion protein on proteome chip (protein, UniProt P38967 1-592, looked up)
Tryptophan permease: MTEDFISSVKRSNEELKERKSNFGFVEYKSKQLTSSSSHNSNSSHHDDDNQHGKRNIFQRCVDSFKSPLDGSFDTSNLKRTLKPRHLIMIAIGGSIGTGLFVGSGKAIAEGGPLGVVIGWAIAGSQIIGTIHGLGEITVRFPVVGAFANYGTRFLDPSISFVVSTIYVLQWFFVLPLEIIAAAMTVQYWNSSIDPVIWVAIFYAVIVSINLFGVRGFGEAEFAFSTIKAITVCGFIILCVVLICGGGPDHEFIGAKYWHDPGCLANGFPGVLSVLVVASYSLGGIEMTCLASGETDPKGLPSAIKQVFWRILFFFLISLTLVGFLVPYTNQNLLGGSSVDNSPFVIAIKLHHIKALPSIVNAVILISVLSVGNSCIFASSRTLCSMAHQGLIPWWFGYIDRAGRPLVGIMANSLFGLLAFLVKSGSMSEVFNWLMAIAGLATCIVWLSINLSHIRFRLAMKAQGKSLDELEFVSAVGIWGSAYSALINCLILIAQFYCSLWPIGGWTSGKERAKIFFQNYLCALIMLFIFIVHKIYYKCQTGKWWGVKALKDIDLETDRKDIDIEIVKQEIAEKKMYLDSRPWYVRQFHFWC
modifications: GST-His6 tag
notes: as for B1
PI(4,5)P2 liposomes
  PI(4, 5)P2: 85.79
PI(3,4)P2 liposomes
  PI(3, 4)P2: 62.48
PI(4)P liposomes
  PI(4)P: 51.39
PI(3)P liposomes
  PI(3)P: 60.50
PI(3,4,5)P3 liposomes
  PI(3, 4, 5)P3: 68.29
[1]
  PC: 83.93

B5: PEX4: yeast GST-HisX6 fusion protein on proteome chip (protein, UniProt P29340 1-183, looked up)
Ubiquitin-conjugating enzyme …: MPNFWILENRRSYTSDTCMSRIVKEYKVILKTLASDDPIANPYRGIIESLNPIDETDLSKWEAIISGPSDTPYENHQFRILIEVPSSYPMNPPKISFMQNNILHCNVKSATGEICLNILKPEEWTPVWDLLHCVHAVWRLLREPVCDSPLDVDIGNIIRCGDMSAYQGIVKYFLAERERINNH
modifications: GST-His6 tag
notes: as for B1
PI(4,5)P2 liposomes
  PI(4, 5)P2: 28.31
PI(3,4)P2 liposomes
  PI(3, 4)P2: 8.63
PI(4)P liposomes
  PI(4)P: 57.48
PI(3)P liposomes
  PI(3)P: 1.75
PI(3,4,5)P3 liposomes
  PI(3, 4, 5)P3: 21.49
[1]
  PC: 69.85

B6: VTC4: yeast GST-HisX6 fusion protein on proteome chip (protein, UniProt P47075 1-721, looked up)
Vacuolar transporter …: MKFGEHLSKSLIRQYSYYYISYDDLKTELEDNLSKNNGQWTQELETDFLESLEIELDKVYTFCKVKHSEVFRRVKEVQEQVQHTVRLLDSNNPPTQLDFEILEEELSDIIADVHDLAKFSRLNYTGFQKIIKKHDKKTGFILKPVFQVRLDSKPFFKENYDELVVKISQLYDIARTSGRPIKGDSSAGGKQQNFVRQTTKYWVHPDNITELKLIILKHLPVLVFNTNKEFEREDSAITSIYFDNENLDLYYGRLRKDEGAEAHRLRWYGGMSTDTIFVERKTHREDWTGEKSVKARFALKERHVNDFLKGKYTVDQVFAKMRKEGKKPMNEIENLEALASEIQYVMLKKKLRPVVRSFYNRTAFQLPGDARVRISLDTELTMVREDNFDGVDRTHKNWRRTDIGVDWPFKQLDDKDICRFPYAVLEVKLQTQLGQEPPEWVRELVGSHLVEPVPKFSKFIHGVATLLNDKVDSIPFWLPQMDVDIRKPPLPTNIEITRPGRSDNEDNDFDEDDEDDAALVAAMTNAPGNSLDIEESVGYGATSAPTSNTNHVVESANAAYYQRKIRNAENPISKKYYEIVAFFDHYFNGDQISKIPKGTTFDTQIRAPPGKTICVPVRVEPKVYFATERTYLSWLSISILLGGVSTTLLTYGSPTAMIGSIGFFITSLAVLIRTVMVYAKRVVNIRLKRAVDYEDKIGPGMVSVFLILSILFSFFCNLVAK
modifications: GST-HisX6 tag
notes: as for B1
PI(4,5)P2 liposomes
  PI(4, 5)P2: 26.78
PI(3,4)P2 liposomes
  PI(3, 4)P2: 30.45
PI(4)P liposomes
  PI(4)P: 99.07
PI(3)P liposomes
  PI(3)P: 8.50
PI(3,4,5)P3 liposomes
  PI(3, 4, 5)P3: 25.31
[1]
  PC: 66.03

B7: FRM2: yeast GST-HisX6 fusion protein on proteome chip (protein, UniProt P37261 1-193, looked up)
nitroreductase FRM2: MSPTGNYLNAITNRRTIYNLKPELPQGVGLDDVKRTVHVILKNTPTAFNSQVNRAVIIVGDTHKRIWDAVASAMPTAEAKKRPESCRDEAYGSVIFFTDEGPTEKLQRDFPALAAAFPTCAAHTTGAVQIQSWTALELLGLGANLQHYNDYVKSALPQDVPIAWTVQSQLVFGVPTALPEEKTFINNVINVYH
modifications: GST-His6 fusion tag
notes: as for B1
PI(4,5)P2 liposomes
  PI(4, 5)P2: 75.34
PI(3,4)P2 liposomes
  PI(3, 4)P2: 59.34
PI(4)P liposomes
  PI(4)P: 12.63
PI(3)P liposomes
  PI(3)P: 3.50
PI(3,4,5)P3 liposomes
  PI(3, 4, 5)P3: 16.88
[1]
  PC: 63.39

B8: APS2: yeast GST-HisX6 fusion protein on proteome chip (protein, UniProt Q00381 1-147, looked up)
AP-2 complex subunit sigma: MAVQFILCFNKQGVVRLVRWFDVHSSDPQRSQDAIAQIYRLISSRDHKHQSNFVEFSDSTKLIYRRYAGLYFVMGVDLLDDEPIYLCHIHLFVEVLDAFFGNVCELDIVFNFYKVYMIMDEMFIGGEIQEISKDMLLERLSILDRLD
modifications: GST-HisX6 tag
notes: as for B1
PI(4,5)P2 liposomes
  PI(4, 5)P2: 103.65
PI(3,4)P2 liposomes
  PI(3, 4)P2: 56.51
PI(4)P liposomes
  PI(4)P: 159.82
PI(3)P liposomes
  PI(3)P: 39.50
PI(3,4,5)P3 liposomes
  PI(3, 4, 5)P3: 15.97
[1]
  PC: 58.70

B9: RPH1: yeast GST-HisX6 fusion protein on proteome chip (protein, UniProt P39956 1-796, looked up)
DNA damage-responsive …: MTKLIAPSEIVGGVPVFKPTYEQFEDFYAYCKAINKYGMKSGVVKVIPPKEWKDKLDLPYSAETLQKIKIKSPIQQHISGNKGLFMVQNVEKNKTYNIIQWKDLSKDYVPPEDPKARRNSRKGSVSKSTKLKLKNFESSFNIDDFEQFRTEYTIDLSDFQNTERLKFLEEYYWKTLNFTTPMYGADTPGSIFPEGLNVWNVAKLPNILDHMETKVPGVNDSYLYAGLWKASFSWHLEDQDLYSINYIHFGAPKQWYSIPQEDRFKFYKFMQEQFPEEAKNCPEFLRHKMFLASPKLLQENGIRCNEIVHHEGEFMITYPYGYHAGFNYGYNLAESVNFALEEWLPIGKKAGKCHCISDSVEIDVKKLAKSWRDNNKESKGTPPLNQLPNPAMPLLHRPTLKEMESSSLRSTSPDVGHFSNFKSKSSGVSSPLLSRMKDYSNIVEPTLEDPTLKLKRISSFQEQPLNKLLKRETSQTAMLTDHEDNIVAMSLTSMANSAASSPRLPLSRLNSSNELSNAQPLLDMTNNTLAFPRPNGPSGLNPLLYISNKNISGISHSAPHSPVNPNISLIKRVKSPNIVTLNISRESSRSPIALNYEARQQHSQQHSFSTPSTVSNLSTSVLGPLSDTNDIKTPHPERPNHKTANRILKKESPVETSKSNLILSKVASTRQEDSFTSRNDDLDKEQGSSPLNSKFAPEEIVLSGKNKIYICKECQRKFSSGHHLTRHKKSVHSGEKPHSCPKCGKRFKRRDHVLQHLNKKIPCISNETTVDAPIMNPTVQPQDGKAAINQQSTPLN
modifications: GST-His6 tag
notes: as for B1
PI(4,5)P2 liposomes
  PI(4, 5)P2: 18.73
PI(3,4)P2 liposomes
  PI(3, 4)P2: 90.73
PI(4)P liposomes
  PI(4)P: 66.19
PI(3)P liposomes
  PI(3)P: 6.00
PI(3,4,5)P3 liposomes
  PI(3, 4, 5)P3: 9.90
[1]
  PC: 56.93
